Experimental data published in the domain aggregation screens of Martell et al. (2025).

Assay: soluble fraction after stress (log2 fold change); higher = more stays soluble; pooled small domains, quantitative proteomics
Conditions: stress: 50 degC
Procedure, shortened: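 Custom libraries of small protein domains were pooled and measured in a high-throughput format, with quantitative proteomics as the read-out. Each library was stressed at 50°C. The value is the log2 fold change in the amount of each protein that stays soluble after stress, used as a measure of aggregation propensity; higher values mean more of the protein stays soluble.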

Sequence	soluble fraction (log2)
HMDFRVGVWVELVQQRRSVRTQLTWVSPQHTLFLFTAKDGSTQSMTLRMRDKLLAEGNLRIVAPPSR	-2.23
HMDFSENEPVTVRVLSILKNNTIRIAVKGAVLQAQTALSQDIREGAFLLMRVHITDNTVVLTPY	0.0533
HMDFSNVNFSQVSDSELDLLMRRASAQGYTQFDLLKIARAQGLTQAEIEKLDKRFKSAETVAYVAENA	0.0939
HMDFTHFTLKQDGKFAGSSNLLHQAVIAAARLAAETGKPVTVMAHVRGGGTRKAVFNPDGTNDKIWN	-0.61
HMDGAPVTVIKNGEVDVATTMRVGLSASELMFKLRAAGVDEVQIVHRAVLEQNGQLTIIKYGEE	0.0259
HMDGASVQRITELTATLNRYRHEYYNLAKPSVSDAVYDRLFDELAALEQKTGIVLSNSPTQTV	-0.247
HMDGFVFVMPIKETRMFSVNDERPLVGIVKYSNGEFEKEQLIGFRPNSEYEFIIEGQRLYRVPVNSITIK	-0.886
HMDGIRLYPGLMIEHKNFGRGQVVSVNRERGTFTAFFGKNGTRTLTIQILKTDTVRPLASQKAGK	0.212
HMDGKPSLIISNGQINYKEMVKLRYSLEDLLFQLRQNSIKSIEEVEYAFLESNGKLSIFPYNFL	-1.51
HMDGLGLGAVILAQRKRQGWTQEDLAARIGVSKGAVSKWETGQSYPDLPLVPRLAALFHITVDELLDYR	-0.662
HMDGLIRLNKLLATLGVESRRHAEEMIIAGRITVDGVTATEKGQKVRRGAVIKVDGVEVGPPP	-0.121
HMDGQPQLLIKNGQLLVSTALKNGMSANDLMFRLRTEGITDIRYVKRAVLEQNGQLTITQVGDD	-0.105
HMDGVTEYTVKSGDSFSAIINKHYNVNYDEKLMQAVAAYNNIEDMNKLQLGQIIKLPPKEQLNL	0.0199
HMDGYVPAERIASEVGVSARTITREMHGLEMTLMPYGIALLRRTGAGFMLAGTAKALADLRKHMTEDADTQ	-0.00161
HMDHAHWEEHEVKLLLTLAIQEKEKFNWNQFGLTREGWRNIYPHFPQYSRKQINNKFDFLKQKYRAWKDS	-1.84
HMDHAVINSEEVTIKDLSEKIGVSAAEIIKALFTEGIIKTINDKIEYEYAQYVAGMFGVELTLKL	0.277
HMDIANEQEQIFITAMRNDDFNPILELKMKGYQPSKNVLKSLQPDVSSTTFIAAAKIFQMEGVL	-0.144
HMDIASNQIQGIKDSVGGDENYSKMVAWALESLPAEEVKAFNDLTETANAPAIKMAVQGLYSQYNNAM	0.264
HMDIDGVSENGRLILAALDKEALDFDTLAAETGIQESRLRTELTLLEIRKLIMKLPGQRYRLI	0.0016
HMDIDNDIIENILVMGVTKAIAINLSNEFERHRIIANIEYAKEKSKNSEIKNISAFTVEAIRQDYANS	-1.1
HMDIEITIPPEAKELDVSKILISGNIITDEQEFLDYLKQNNVAAFKDGNYKLNKNMTTEEIVNQIK	0.498
HMDIESREAWVDASGMGVRLDRWLTQLAPEFSRNHLQSLIERGAVRVDGQPALVASRKLRIGQQVAVSLIP	-0.868
HMDIEVEVPNLVGMSLDEAKSIIQSMGLVVGLTIEDPSAKVSDNSVTKQKPTYQTGVKLRSGDMIDIWYAG	-0.102
HMDIFSSFVAIKNANVRELPTAKSAQVATLSKGSEVTALGKVKGKNWYLVARDGKELGYVFGSLIAEAET	-1.29
HMDIINLADNIARLRRRRQITQEELADYLGVTKAAVSKWENRQTMPDILLLPRLAGLFEVTIDELVGY	-1.42

Sequence	soluble fraction (log2)
HMDIKDRSGVTIDESNEAQQESIIRESWAEQKISGNVDNYIAYLKANGMLLETAKIELAALQEKDASLRE	0.0421
HMDILEVLIKKDLAMELLEQLTERQRTVVYLRYFYQLNQKEIADYLGISQQRVSEILSRAKAVLTAYTKK	-1.43
HMDILPEGNYKVNYDVIDEVGNIVANKNDIVVTEKSIKPLNTILGIDLYEVIHSQTGKYFTINGDNLTN	-0.00162
HMDINLGIGPLVKKYRTIKGYSIRELARNINVTASMLSQIERDIVNPSINTLKAISVELGVPMYKFFM	-2.33
HMDINLSENLVRLRHAKKLTQEQLADFLGVTKASVSKWETRQSLPDILLLPRLAAFYGVTVDELIGYEP	-0.253
HMDISKTLGKNPLLIIDNIEYRGKTLDEITAMTGVKRFENIDIYGSEEAMKTYGEKAKDGVIIAYTT	0.0561
HMDITGIGIKKRIKAIIDSEDKKNPLSDTQIVEILKNEGLEISRRTVAKYRSDLQIPSSSKRKK	0.403
HMDIVEIYVGEEDGERIDSYLAQELNNVSRSYVQGLIKNQLITVNGNHVKPKHIVKEGEHIIVNIPPPKV	0.24
HMDIVENSMPNVVGLELNRAKELMTQLGFTNVRYEPTESSRPENEVVYQSVDKDETLDVSSEIIIQYSSGV	-0.0131
HMDKEKLQEKLLQIFEAEPQKKFQVQDLVKVLDMEGAGQFKFVVQALADLEHNKQIKLSEDDTFSLIVKE	0.0616
HMDKENVLQLQKDLLRLSVNALEKRYYQFSDILLLKYILPLVPKEISIDDQSRLRSLLSGIN	-0.238
HMDKEPTHLHTFRLIKEGKSSEEIAEIRNITLGTVNTHLAKLIAVGELTIEQVISKHRLDYVMEAIKNSK	-0.16
HMDKKIVGVNAGKVWQALNEVTEISIVELAEKLNLSVESTALAAGWLAREDQISIERKNGTIELQRKN	-0.263
HMDKNNLLIIYRTNSEGTPYAFSVTPSAKSLDALHKDAKEMLPFLEKSMNNFFSIQIWERAEYLKY	-0.643
HMDKPGMRLNQFIAHSGISSRREADNLIKAGLVQVNGKIIVEMGFRVMPTDIVKFNNETIAS	-1.46
HMDKPIVFLEDTKAHKSSDLQSPVYMTVPKGTIAFVIAEKGDWSQVYAGRVLDRNLASQWVRRGFS	0.227
HMDKSLDFASIKSVEIATGRKFGWHALKKWSKSNSSEIKTIPDPNFGEVKTYHKDAWLAVYNINLSPILD	-0.404
HMDKSPMIGTAEYEGVLYWRQTKDNGATWEWITDKNGDKMPVSGPAPAVGIDKDGYWTVNGESTGVLAKD	0.168
HMDKVSYALGLGIGRQLTDMGAKDLNIDDFAQAIKDVLAGGEVKLSDAEAQTIVRNFFDEQEKKQRA	-0.0034
HMDLANLQNGQTLPLQRDVEVISIPFGKTISLSEDSVVSIMQAKGSSVSVAYEGRLYLIEGSNLDALGLEP	-0.736
HMDLANRSLDRGITILESLARNGASSLADLHRDSGIAKSTIRRLLGTLIQHRLVRRSVADGLYRVTIPLPA	-1.18
HMDLDIQNYNLDEILELFKVSYDFDETELKKAHKMYLMTHPDKSNLNPNIFLFFVQAYDILRKLYEFR	-0.468
HMDLDIRDDIYRANIPNDYKLQQMQNNIDYDKVLTGYYNNRPEANVIANRTLQLANDVYNRD	-0.0187
HMDLDLNIDNYNFDDLLNLFGLKMKFSEDDLKKAKRSVLMTHPDKSGLDKQYFMFFTKAYKMLSQIYYFR	0.42
HMDLDPNKPAIPIAYPRVLLNIMAEKGFSRTEVLAGSGLADSVFDKPDHRITPAQFLFILMNSFYLS	-0.601

Sequence	soluble fraction (log2)
HMDLFLVYQFIRRLATPFTEWKAHELGIIDDKGVQLKKRRDFTTREEKDAYGIFDIMITKLKRLIEKV	-0.255
HMDLFSAVVHHIVGQQISTKAQATIWKRMRDEFGVVDAAAVLGAGVEKLQSFGMTFRKAEYITDFARKIE	-2.51
HMDLGLTDDQRLVYGLLSPTVPRSSGELLGMVDFGRSKLSRILKELIELGQVFTVGVGRGLKYKRG	-0.307
HMDLGTHMRLIVPTGMRVDHIVYESNGKNISVDHDRSISVRWNGEVVSIDVSPLPSRPDFDVLIYMSPK	-0.0114
HMDLLAESLTRREAEVAALAARGLTNRAIAELFGLSVRTAETHLHRAMGKLGANRREDLLLHADRLDPG	-0.629
HMDLLESLSAREREVVHLASRGLVNKLIARELGITERTVKAHLSSAFEKLHIKDRVHLALLVNGI	-1.45
HMDLLKANNLSQINVDKLTDEEILKYSQQLKQSGLTESQAEQIAIARGMPATEIAKLKQRLISLTNMQ	0.133
HMDLLVWRVADEDAGERIDKLVVDSLDDVSRTAVQQWIKDGLVTVNGKTVKPNYKAAAGDEVAVSVPEPE	0.149
HMDLMKKTLTKEMLLIDFMKQQFPDSSTNKLRKMLSSGRVKINNLITHKAKSQLKLGDIFELANKPHD	-0.826
HMDLPGIVTETDRQRADLAARIGAAKVEAVLAGGARSVEADEDFDADTRRELHQFLTRMARRAFLEER	-0.0484
HMDLPSSETLKVKLNLAKAYVTIEDFGAARRALDEVLSVSSLVDPDLTIQAKSLLAEIDQRS	-0.0514
HMDLQAAWLQTVRHLLAHTEDVGDRFAEEARRIHYGEEPHRGIRGQATPEERLALREEGIETMSIPV	-0.631
HMDLQHQLTPRLKRLRLSGILETLEVRNQQAIAEKWSYVEFLTRLAEDEVERRDHKQLTLRLR	-0.499
HMDLSYPFTTVTTDNVNMRRSASSSSVVLERIDKGDSITVLGTSGNYYKVSYNDRTGYVLKQYVDVSAATT	-0.173
HMDLTPEEQMDLYRLLDSLPTEERTYLILHYFEERSFPEMAEILSMPEAKLKSRFYRILHRLRAHL	-2.56
HMDLTSDANLKEAKDQILNLLNDGKRHHVTEINKILLPPVQVQEALRFLIHEETVRVDASFLF	-0.167
HMDLVESYDLKIIYTSELINLLIDSSRLEEALNLFKDLKDEIDDVENLGFSAKNNLDYMESKLLHLG	-1.83
HMDLYIILGLERSATLSDVRRAYRRLARKYHPGINPGDRNSASVFTRVSEAYQVLSDPEQRRRYDSR	-2.81
HMDMDRRALLLALINDRYHASVAEFARAINKAPAQVHQWLSGNRALGNAGARDIEIRLNLAQGYFDH	-1.91
HMDMQMPIMNGLEFLERINLTLDDNFSIIVLTGKIEDKSIEKSFELGINAYLRKPFNIYALLGIVRQN	-0.0848
HMDMSDFEVVRDMYLTGKVWNAGDIVEAKGITGEVVRKGTNYLSFVDKNGKVHKAWLHEIEL	-0.188
HMDNAILQELYDYYKEDPSLSQSELIISMLTRIQEAVGYVSKDVQEEVARLAGVNRGYVAAIIKNLPHL	-0.747
HMDNEYDKVYQAALSKLEGYPRSSITTAVIKDVVAQTIKYFEIKNFGYEDTIINQLQSAFTVKSSS	-0.0856
HMDNLSESQIKAYSSILSRTHEISDLAENKDYLAFSLWIANILRDPQSVREETAKRVFSALHTNTDFK	-0.945
HMDNMFMPPVNGWDVRQALQKLQNEMGLQVKMEYSPSETITEGYVISYTPIDGMKVEKGDEVTLVISTGPE	0.225
